Measured values from the Human Domainome abundance scans (Beltran et al. 2025).
± gives the uncertainty stated by the source.

B1: POU domain, class 4, transcription factor 3, residues 185 to 256; numbered along this chain, Q15319 (parent)
chain: RELEAFAERFKQRRIKLGVTQADVGAALANLKIPGVGSLSQSTICRFESLTLSHNNMIALKPVLQAWLEEAE

Variants of: B1
Assay: abundance fitness (aPCA) (normalised: wild type 0, dead -1); higher = more abundant; growth selection in yeast, the domain comes from the species named
Conditions: Homo sapiens
With G18T the abundance fitness was -0.884 ± 0.2.
With G18C the abundance fitness was -0.572 ± 0.097.
Work on G18Y yielded an abundance fitness of -0.928 ± 0.29.
Work on G18R yielded an abundance fitness of -0.249 ± 0.11.
G18A gave an abundance fitness of -0.43 ± 0.12.
For G18S, the abundance fitness was -0.435 ± 0.08.
For A71V, the abundance fitness was -0.073 ± 0.036.
With A71K the abundance fitness was 0.002 ± 0.027.
A71W gave an abundance fitness of -0.281 ± 0.056.
For C45K, the abundance fitness was 0.109 ± 0.17.
Variant C45F has an abundance fitness of -0.001 ± 0.038.
C45L gave an abundance fitness of -0.06 ± 0.038.
With C45T the abundance fitness was 0.012 ± 0.064.
Work on C45N yielded an abundance fitness of -0.007 ± 0.094.
For C45Y, the abundance fitness was -0.01 ± 0.059.
C45S gave an abundance fitness of -0.042 ± 0.053.
Work on C45P yielded an abundance fitness of -0.25 ± 0.05.
With S42K the abundance fitness was 0.046 ± 0.11.
For S42F, the abundance fitness was -0.225 ± 0.069.
Variant S42Q has an abundance fitness of 0.017 ± 0.07.
For S40Y, the abundance fitness was -0.422 ± 0.079.
With S40C the abundance fitness was -0.066 ± 0.12.
Work on S40I yielded an abundance fitness of -0.664 ± 0.38.
S40L showed an abundance fitness of -0.488 ± 0.082.
S40Q showed an abundance fitness of -0.287 ± 0.15.
With S40V the abundance fitness was -0.354 ± 0.08.
In the case of T20I, the abundance fitness is reported as -0.623 ± 0.37.
Variant T20K has an abundance fitness of -0.183 ± 0.031.
With T20Q the abundance fitness was -0.27 ± 0.028.
Work on V63F yielded an abundance fitness of -0.181 ± 0.15.
V63T gave an abundance fitness of -0.254 ± 0.11.
In the case of G35I, the abundance fitness is reported as -0.569 ± 0.2.
Variant G35Q has an abundance fitness of -0.076 ± 0.048.
With G35M the abundance fitness was -0.099 ± 0.087.
In the case of G35Y, the abundance fitness is reported as -0.26 ± 0.074.
In the case of G35H, the abundance fitness is reported as -0.038 ± 0.071.
G35F showed an abundance fitness of -0.231 ± 0.14.
Work on A5R yielded an abundance fitness of -0.121 ± 0.19.
Variant A5T has an abundance fitness of -0.002 ± 0.23.
Work on A5V yielded an abundance fitness of -0.051 ± 0.096.
Variant A5L has an abundance fitness of 0.019 ± 0.065.
E8S showed an abundance fitness of -0.033 ± 0.055.
Work on E8I yielded an abundance fitness of 0 ± 0.12.
D23Y showed an abundance fitness of -0.411 ± 0.16.
Work on D23M yielded an abundance fitness of -0.135 ± 0.11.
D23H showed an abundance fitness of -0.017 ± 0.23.
For D23N, the abundance fitness was -0.112 ± 0.1.
For N30H, the abundance fitness was -0.051 ± 0.16.
With N30F the abundance fitness was -0.276 ± 0.1.
With N30P the abundance fitness was -0.267 ± 0.058.
For N30I, the abundance fitness was -0.361 ± 0.15.
In the case of N30S, the abundance fitness is reported as -0.186 ± 0.098.
For T51H, the abundance fitness was -0.201 ± 0.21.
Variant T51W has an abundance fitness of -0.406 ± 0.036.
T51P gave an abundance fitness of -1.19 ± 0.27.
Variant T51K has an abundance fitness of 0.111 ± 0.12.
With T51M the abundance fitness was 0.096 ± 0.17.
For T51V, the abundance fitness was -0.112 ± 0.073.
Variant T51A has an abundance fitness of -0.041 ± 0.056.
With T51L the abundance fitness was -0.13 ± 0.056.
T51E gave an abundance fitness of -0.146 ± 0.29.
For T51R, the abundance fitness was 0.028 ± 0.058.
L52M gave an abundance fitness of -0.55 ± 0.47.
R9E gave an abundance fitness of 0.033 ± 0.075.
R9A gave an abundance fitness of -0.045 ± 0.077.
For R9G, the abundance fitness was -0.198 ± 0.13.
For R9S, the abundance fitness was 0.007 ± 0.083.
In the case of R9H, the abundance fitness is reported as -0.018 ± 0.1.
Variant R9I has an abundance fitness of -0.192 ± 0.084.
Variant P34W has an abundance fitness of -0.571 ± 0.36.
In the case of P34M, the abundance fitness is reported as -0.141 ± 0.093.
P34L showed an abundance fitness of -0.386 ± 0.067.
In the case of P34F, the abundance fitness is reported as -0.474 ± 0.1.
P34T gave an abundance fitness of -0.058 ± 0.094.
R1A gave an abundance fitness of -0.282 ± 0.14.
R1C showed an abundance fitness of -0.229 ± 0.065.
For R1F, the abundance fitness was -0.142 ± 0.092.
R1G gave an abundance fitness of 0.002 ± 0.041.
R1N gave an abundance fitness of -0.153 ± 0.2.
For R1K, the abundance fitness was -0.226 ± 0.11.
R1M showed an abundance fitness of -0.08 ± 0.1.
L60A showed an abundance fitness of -0.289 ± 0.17.
For L60R, the abundance fitness was -0.845 ± 0.25.
F47V showed an abundance fitness of -0.718 ± 0.1.
